Reference: paper PMC2147998

Molecular target: UNG2 S23D/T60D/S64D (human) (UniProt P13051)
Assay: co-IP

Sequence of UniProt P13051 (P13051 whole entry S23D/T60D/S64D): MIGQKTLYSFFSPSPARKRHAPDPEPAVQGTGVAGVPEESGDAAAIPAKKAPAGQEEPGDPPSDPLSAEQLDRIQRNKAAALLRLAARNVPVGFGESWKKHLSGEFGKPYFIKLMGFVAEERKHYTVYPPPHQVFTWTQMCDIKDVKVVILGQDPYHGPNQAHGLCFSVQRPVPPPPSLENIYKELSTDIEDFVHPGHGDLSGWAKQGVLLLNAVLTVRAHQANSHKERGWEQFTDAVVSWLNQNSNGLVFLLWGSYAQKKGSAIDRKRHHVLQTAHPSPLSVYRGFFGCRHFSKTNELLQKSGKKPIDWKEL

For “replication protein A (RPA) (from UniProt P15927 1-270) (complex)”, the RPA-binding capacity relative to WT UNG2 was 40%.
